# Laboratory results: patent publication US20180002445A1 (published 2018)
# T1: membranous catalase of human tumor cells (MKN-45 gastric carcinoma, SHEP neuroblastoma) (human, UniProt P04040 2-527)
# T1 sequence (looked up): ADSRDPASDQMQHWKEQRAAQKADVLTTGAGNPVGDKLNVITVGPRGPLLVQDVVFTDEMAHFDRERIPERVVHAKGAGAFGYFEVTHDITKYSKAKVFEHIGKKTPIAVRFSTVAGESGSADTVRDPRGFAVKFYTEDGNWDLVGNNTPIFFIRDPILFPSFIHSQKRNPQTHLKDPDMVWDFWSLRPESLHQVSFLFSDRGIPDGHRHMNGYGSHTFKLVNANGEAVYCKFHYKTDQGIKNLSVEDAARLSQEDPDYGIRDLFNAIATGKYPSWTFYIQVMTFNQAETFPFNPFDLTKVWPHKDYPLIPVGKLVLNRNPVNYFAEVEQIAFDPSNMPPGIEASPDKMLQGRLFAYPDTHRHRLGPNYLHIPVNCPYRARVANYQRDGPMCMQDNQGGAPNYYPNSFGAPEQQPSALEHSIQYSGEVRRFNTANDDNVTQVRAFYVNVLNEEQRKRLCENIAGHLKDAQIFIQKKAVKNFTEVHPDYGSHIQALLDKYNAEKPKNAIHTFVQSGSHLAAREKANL
# T2: human catalase (human, UniProt P04040 2-527)
# T2 construct: Target of the ELISA by which the clones were selected
# T2 sequence (looked up): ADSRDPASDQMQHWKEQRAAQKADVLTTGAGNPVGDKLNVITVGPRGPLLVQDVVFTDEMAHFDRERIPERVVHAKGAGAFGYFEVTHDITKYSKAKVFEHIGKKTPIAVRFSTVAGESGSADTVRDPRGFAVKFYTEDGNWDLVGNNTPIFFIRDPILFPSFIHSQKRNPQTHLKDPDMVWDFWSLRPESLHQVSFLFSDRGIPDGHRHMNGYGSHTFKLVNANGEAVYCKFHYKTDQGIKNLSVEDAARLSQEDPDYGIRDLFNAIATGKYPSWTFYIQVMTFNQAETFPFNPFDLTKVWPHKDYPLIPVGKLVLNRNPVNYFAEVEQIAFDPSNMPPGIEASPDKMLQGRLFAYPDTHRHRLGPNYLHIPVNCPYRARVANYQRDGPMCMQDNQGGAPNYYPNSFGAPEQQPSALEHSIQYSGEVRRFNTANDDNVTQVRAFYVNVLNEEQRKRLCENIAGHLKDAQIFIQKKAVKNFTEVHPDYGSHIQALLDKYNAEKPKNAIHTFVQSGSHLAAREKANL
# Experiments:
# [1] = biological target: T1, membranous catalase of human tumor …; test: cell-based or functional assay
# [2] = biological target: T2, human catalase; test: heading of the sequence table; ELISA selection
# [3] = biological target: T3, human SOD1 (human, UniProt P00441 2-154); test: heading of the sequence table; ELISA selection
# T3 construct: Target of the ELISA by which the clones were selected; also called Cu/ZnSOD; superoxide dismutase
# T3 sequence (P00441 2-154 limits assumed): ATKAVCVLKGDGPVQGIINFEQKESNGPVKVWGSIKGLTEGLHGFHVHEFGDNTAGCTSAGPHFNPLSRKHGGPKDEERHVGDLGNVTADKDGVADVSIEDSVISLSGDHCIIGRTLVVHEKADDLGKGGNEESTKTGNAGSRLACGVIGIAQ
# [4] = biological target: T4, membranous SOD of human tumor cells (MKN-45 gastric carcinoma, SHEP neuroblastoma) (human, UniProt P00441 2-154); test: cell-based or functional assay
# T4 sequence (P00441 2-154): as the sequence (P00441 2-154 limits assumed) above
# [5] = biological target: T4, membranous SOD of human tumor cells …; test: cell-based or functional assay; remark: listed apart in the source
binder,measurement,setting,value
aCATcb0972 (VHH) VHH: QVQLVESGGGLVQAGGSLRLSCAASERTFNTYGMGWFRQAPGKEREFVATISWSGDSTYYADSVKGRFTISRDNAKNTMYLQMNSLKPEDTAVYYCNANSEYGDSYWGQGTQVTVSS,relation (molar basis) (against aCATaSOD),[1],1420 fold
same,relation to opt. conc. hybrid Fab (against aCATaSOD),[1],708 fold
"aCATcb0974 (VHH, Recombinant alpaca single domain VHH fragment against human catalase; also called aCATcb9074) VHH: QVQLVESGGGLVQPGGSLRLSCAASGSIFSIASMGWYRQAPGKQRDLVATITSDGSTKYADSVKGRFTISRDNAKNTMYLQMNSVKPEDAAVYYCNADADDLEPGSYDYDYWGQGTQVTVSS",binding result,[2],binds
"aSODcb0987 (VHH, Recombinant alpaca single domain VHH fragment against human SOD1) VHH: QVQLVESGGGIVQPGGSLRLSCVASESISEIDAMYWHRQAPGKERELVAGITNDGTRYYADSVKGRFTISRDNAKSTLYLQMNSLKFEDTAMYYCAALPNPPPGYWGQGTQVTVSS",binding result,[3],binds
aSODcb0991 (VHH) VHH: QVQLVESGGGIVQPGGSLRLSCVASESISDIDAMYWHRQAPGKRRELVAGITNDGTEYFADSVKGRFAISRDNTKSSLYLQMNSLKLEDTAMYYCATLPNPPPGYWGQGTQVTVSS,"concentration required for apoptosis induction in SHEP cells, against the neutralizing single domain VHH fragment",[4],1e+06 fold
"aCATcb0975 (VHH, Recombinant alpaca single domain VHH fragment against human catalase) VHH: QVQLVESGGGLVQPGGSLRLSCAASASIFSIYVMAWYRQAPGKQRELVATVTSGGATNYANSVKGRFTISRDNAKNTMDLQMNSLKPEDTAVYYCNAEDYYDYGLSRSKIYWGQGTQVTVSS",binding result,[2],binds
"aCATcb0973 (VHH, Recombinant alpaca single domain VHH fragment against human catalase) VHH: EVQLVESGGGLVQPGGSLRLSCAVSGFIFNTYSMRWGRQAPGKGLEWVSSISTGGYSTYADSVKGRFTISRDNAKNLVYLQMNSLKPEDTAVYYCGWGAFVRGERPQGQGTQVTVSS",binding result,[2],binds
aSODcb0989 (VHH) VHH: QVQLVESGGGLVQSGGSLTLSCTASGFTISNYPMTWVRQAPGKGLEWVSRINSGGDRTLYADSVKGRFTVSRDNARNTMYLQMNNLKPEDTGLYFCADSGAGWRYWGQGTQVTVSS,relation (molar basis) (against aCATaSOD),[5],2920 fold
same,relation to opt. conc. hybrid Fab (against aCATaSOD),[5],1460 fold
